Laboratory results published in PMC4318798 (Nature structural & molecular biology, 2015).
Read-outs that look alike come from different tables or passages of the source.

What was measured:
SEC-MALS [1] = target: the molecule itself; assay: SEC-MALS
SEC-MALS [2] = target: the molecule itself; assay: SEC-MALS; remark: listed apart in the source
Ctp1 61-294 = target: T1, Ctp1 61-294 (Schizosaccharomyces pombe, UniProt O74986 61-294); assay: EMSA
T1 sequence: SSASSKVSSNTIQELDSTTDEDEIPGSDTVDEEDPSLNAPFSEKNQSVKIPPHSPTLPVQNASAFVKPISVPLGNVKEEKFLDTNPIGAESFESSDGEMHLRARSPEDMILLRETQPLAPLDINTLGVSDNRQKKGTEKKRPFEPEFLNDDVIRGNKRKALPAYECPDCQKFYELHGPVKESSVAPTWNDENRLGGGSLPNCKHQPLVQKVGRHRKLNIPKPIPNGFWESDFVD

Ctp1 R275A = target: T2, Ctp1 R275A (Schizosaccharomyces pombe, UniProt O74986 1-294, R275A); assay: EMSA
T2 sequence: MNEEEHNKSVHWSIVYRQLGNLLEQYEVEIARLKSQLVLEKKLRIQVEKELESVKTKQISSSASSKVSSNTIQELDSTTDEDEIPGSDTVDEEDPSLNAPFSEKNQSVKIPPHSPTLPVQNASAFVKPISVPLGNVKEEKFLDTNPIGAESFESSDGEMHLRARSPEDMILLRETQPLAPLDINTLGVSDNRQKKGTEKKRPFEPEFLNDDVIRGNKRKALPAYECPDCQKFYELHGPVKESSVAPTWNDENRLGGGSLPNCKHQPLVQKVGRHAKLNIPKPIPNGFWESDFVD

Ctp1 R273A = target: T3, Ctp1 R273A (Schizosaccharomyces pombe, UniProt O74986 1-294, R273A); assay: EMSA
T3 sequence: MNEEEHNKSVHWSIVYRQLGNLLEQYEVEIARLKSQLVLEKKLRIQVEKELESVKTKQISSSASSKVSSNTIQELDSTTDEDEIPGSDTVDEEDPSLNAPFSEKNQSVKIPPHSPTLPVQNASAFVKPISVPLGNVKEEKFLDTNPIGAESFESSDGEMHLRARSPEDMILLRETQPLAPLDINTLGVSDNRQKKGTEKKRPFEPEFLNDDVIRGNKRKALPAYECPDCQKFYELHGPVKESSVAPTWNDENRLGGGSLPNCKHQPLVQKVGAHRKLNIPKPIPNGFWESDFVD

Ctp1 K276A = target: T4, Ctp1 K276A (Schizosaccharomyces pombe, UniProt O74986 1-294, K276A); assay: EMSA
T4 sequence: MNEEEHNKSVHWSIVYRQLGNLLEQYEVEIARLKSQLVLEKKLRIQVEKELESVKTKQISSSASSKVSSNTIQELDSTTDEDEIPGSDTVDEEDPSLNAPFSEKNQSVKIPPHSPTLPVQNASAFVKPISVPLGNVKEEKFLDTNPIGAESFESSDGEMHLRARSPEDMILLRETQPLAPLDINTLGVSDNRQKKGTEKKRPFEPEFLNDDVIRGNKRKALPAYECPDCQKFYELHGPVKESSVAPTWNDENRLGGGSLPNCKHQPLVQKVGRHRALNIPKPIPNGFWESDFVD

Ctp1 K219A = target: T5, Ctp1 K219A (Schizosaccharomyces pombe, UniProt O74986 1-294, K219A); assay: EMSA
T5 sequence: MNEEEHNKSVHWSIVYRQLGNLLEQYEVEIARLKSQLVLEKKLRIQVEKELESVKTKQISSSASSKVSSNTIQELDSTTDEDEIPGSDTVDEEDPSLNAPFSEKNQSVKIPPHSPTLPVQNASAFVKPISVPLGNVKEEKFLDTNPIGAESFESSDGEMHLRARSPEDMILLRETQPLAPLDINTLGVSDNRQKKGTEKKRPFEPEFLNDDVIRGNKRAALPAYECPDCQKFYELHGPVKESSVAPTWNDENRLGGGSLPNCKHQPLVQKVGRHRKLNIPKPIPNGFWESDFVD

Ctp1 K231A = target: T6, Ctp1 K231A (Schizosaccharomyces pombe, UniProt O74986 1-294, K231A); assay: EMSA
T6 sequence: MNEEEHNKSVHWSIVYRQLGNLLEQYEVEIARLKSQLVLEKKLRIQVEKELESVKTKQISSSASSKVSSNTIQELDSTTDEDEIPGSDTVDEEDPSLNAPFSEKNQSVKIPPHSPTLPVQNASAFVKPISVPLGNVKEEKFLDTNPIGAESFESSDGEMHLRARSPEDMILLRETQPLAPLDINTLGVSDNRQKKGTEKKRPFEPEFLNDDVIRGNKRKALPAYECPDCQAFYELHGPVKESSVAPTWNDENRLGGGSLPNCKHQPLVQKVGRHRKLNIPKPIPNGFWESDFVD

Ctp1 WT = target: T7, Ctp1 WT (Schizosaccharomyces pombe, UniProt O74986 1-294); assay: EMSA
T7 sequence: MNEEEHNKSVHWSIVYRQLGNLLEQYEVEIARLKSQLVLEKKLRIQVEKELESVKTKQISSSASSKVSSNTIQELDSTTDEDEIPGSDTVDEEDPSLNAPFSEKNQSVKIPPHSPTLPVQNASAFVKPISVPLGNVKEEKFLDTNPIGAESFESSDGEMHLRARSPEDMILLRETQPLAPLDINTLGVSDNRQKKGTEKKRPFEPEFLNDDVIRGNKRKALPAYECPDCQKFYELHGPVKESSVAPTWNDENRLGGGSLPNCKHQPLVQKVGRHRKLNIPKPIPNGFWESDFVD

SEC-MALS [3] = target: the molecule itself; assay: SEC-MALS; remark: listed apart in the source
Ctp1 1-150 = target: T8, Ctp1 1-150 (Schizosaccharomyces pombe, UniProt O74986 1-150); assay: EMSA
T8 sequence: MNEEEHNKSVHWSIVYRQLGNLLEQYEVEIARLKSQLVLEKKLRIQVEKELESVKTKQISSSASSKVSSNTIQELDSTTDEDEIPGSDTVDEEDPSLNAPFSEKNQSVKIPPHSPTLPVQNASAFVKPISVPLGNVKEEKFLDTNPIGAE

Ctp1 151-294 = target: T9, Ctp1 151-294 (Schizosaccharomyces pombe, UniProt O74986 151-294); assay: EMSA
T9 sequence: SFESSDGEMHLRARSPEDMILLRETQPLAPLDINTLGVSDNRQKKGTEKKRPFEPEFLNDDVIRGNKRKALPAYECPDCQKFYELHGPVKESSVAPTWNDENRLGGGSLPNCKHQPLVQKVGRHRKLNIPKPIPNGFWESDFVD

crystal structure = target: the molecule itself; assay: crystal structure

B1: Ctp1_(1–60) (domain or fragment, S. pombe, UniProt O74986 1-60, looked up)
chain: MNEEEHNKSVHWSIVYRQLGNLLEQYEVEIARLKSQLVLEKKLRIQVEKELESVKTKQIS
With B1 the “stoichiometry N” value (SEC-MALS [1]) was 4.

B2: MBP-Ctp1_(1–60) (domain or fragment, S. pombe, UniProt O74986 1-60, looked up)
chain: MNEEEHNKSVHWSIVYRQLGNLLEQYEVEIARLKSQLVLEKKLRIQVEKELESVKTKQIS
B2 was tested, and the “stoichiometry N” value (SEC-MALS [2]) was 4.

B3: fork (ssDNA/splay) (mixed)
DNA 1: GCAGGAGGTGGCGTCGGGTGGACGGGTGGATTGAAATTTAGGCTGGCACGGTCT
DNA 2: AGACCGTGCCAGCCTAAATTTCAATCCAAGGTCTCGACTAACTCTAGTCGTTGT
With B3 the Kd (Ctp1 61-294) was 1000 nM.

B4: 54 bp dsDNA (dsDNA)
DNA 1: GCAGGAGGTGGCGTCGGGTGGACGGGTGGATTGAAATTTAGGCTGGCACGGTCT
DNA 2: AGACCGTGCCAGCCTAAATTTCAATCCACCCGTCCACCCGACGCCACCTCCTGC
B4: no binding (Ctp1 R275A); no binding (Ctp1 R273A); no binding (Ctp1 K276A). B4: no binding (Ctp1 K219A); no binding (Ctp1 K231A).

B5: ssDNA 54 nt (ssDNA)
DNA: GCAGGAGGTGGCGTCGGGTGGACGGGTGGATTGAAATTTAGGCTGGCACGGTCT
B5: binds (Ctp1 WT).

B6: full-length S. pombe Ctp1 (natural protein, UniProt O74986 1-294, looked up)
chain: MNEEEHNKSVHWSIVYRQLGNLLEQYEVEIARLKSQLVLEKKLRIQVEKELESVKTKQISSSASSKVSSNTIQELDSTTDEDEIPGSDTVDEEDPSLNAPFSEKNQSVKIPPHSPTLPVQNASAFVKPISVPLGNVKEEKFLDTNPIGAESFESSDGEMHLRARSPEDMILLRETQPLAPLDINTLGVSDNRQKKGTEKKRPFEPEFLNDDVIRGNKRKALPAYECPDCQKFYELHGPVKESSVAPTWNDENRLGGGSLPNCKHQPLVQKVGRHRKLNIPKPIPNGFWESDFVD
For B6, the “stoichiometry N” value (SEC-MALS [1]) was 4.

B7: Ctp1 R32A K41A (natural protein, S. pombe, UniProt O74986 1-294, looked up)
chain: MNEEEHNKSVHWSIVYRQLGNLLEQYEVEIAALKSQLVLEAKLRIQVEKELESVKTKQISSSASSKVSSNTIQELDSTTDEDEIPGSDTVDEEDPSLNAPFSEKNQSVKIPPHSPTLPVQNASAFVKPISVPLGNVKEEKFLDTNPIGAESFESSDGEMHLRARSPEDMILLRETQPLAPLDINTLGVSDNRQKKGTEKKRPFEPEFLNDDVIRGNKRKALPAYECPDCQKFYELHGPVKESSVAPTWNDENRLGGGSLPNCKHQPLVQKVGRHRKLNIPKPIPNGFWESDFVD
B7: binds (SEC-MALS [3]).

B8: 39 bp dsDNA (39bpf/39bpr) (dsDNA)
DNA 1: CAGAGTCATAATATGCAGGTGCAGGTTATTCATGCTCGG
DNA 2: CCGAGCATGAATAACCTGCACCTGCATATTATGACTCTG
B8: no binding (Ctp1 1-150); no binding (Ctp1 151-294).

B9: Ctp1_(5–60)-L51M (domain or fragment, S. pombe, UniProt O74986 5-60, looked up)
chain: EHNKSVHWSIVYRQLGNLLEQYEVEIARLKSQLVLEKKLRIQVEKEMESVKTKQIS
B9: binds (crystal structure).

B10: MBP-Ctp1_(15–60) (domain or fragment, S. pombe, UniProt O74986 15-60, looked up)
chain: VYRQLGNLLEQYEVEIARLKSQLVLEKKLRIQVEKELESVKTKQIS
With B10 the “stoichiometry N” value (SEC-MALS [2]) was 2.
